We go through three molecules from patent US20220127585A1 (UNIVERSITY OF SOUTH CAROLINA, published 2022).

For orientation: Kd means the constant that tells how readily two partners part at equilibrium. High values mean a looser complex, low ones a tighter complex.

The target of assay [1] is T1, B-Raf kinase (UniProt P15056 448-723, limits assumed). The assay can be described thus: intrinsic tryptophan fluorescence (ITF), column head 'Kd (ITF) (µM)'.
Experimental: Fluorescence intensity was measured with a Hitachi F-2500 Fluorescence Spectrophotometer. A 1.6 mL of protein solution (0.5 μM) was placed in a cuvette and equilibrated at 15° C. for 1 hour. After equilibration, small increments (2-15 μL) of the ligand solution were injected in the cuvette. The experiments were performed in 20 mM HEPES buffer (pH 7.5), 10 mM MgCl2, 30 mM NaCl. […] The slits were set at 10 and 10 nm in the excitation and emission respectively. To determine dilution effect of B-Raf (due to ligand addition) and any fluorescence effect by unbound ligand, a blank sample containing Trp with the same fluorescence signal was titrated with ligand additions as described above. The sample absorbance was kept below 0.1 to minimize the inner filter effect.
In assay [2] the target is T1, B-Raf kinase. In words: binding affinity, Table 3 (method not given; the Methods describe fluorescence titration).
Assay [3] deals with T1, B-Raf kinase. In words: direct binding affinity (Kd; values in FIG. 14).

Bridges are numbered along the chain shown (N, C = ends). Where no end group is shown, it is not given here. [ ]: non-standard residue; d: D form. The star is where a group is joined. C4 = C-terminal cap: phenethyl group with a meta isopentyloxy group, CC(C)CCOc1cccc(CCN*)c1; NMeR = CN[C@@H](CCCNC(=N)N)C(=O)O; PhAc = O=C(Cc1ccccc1)*

T1 sequence (P15056 448-723 limits assumed): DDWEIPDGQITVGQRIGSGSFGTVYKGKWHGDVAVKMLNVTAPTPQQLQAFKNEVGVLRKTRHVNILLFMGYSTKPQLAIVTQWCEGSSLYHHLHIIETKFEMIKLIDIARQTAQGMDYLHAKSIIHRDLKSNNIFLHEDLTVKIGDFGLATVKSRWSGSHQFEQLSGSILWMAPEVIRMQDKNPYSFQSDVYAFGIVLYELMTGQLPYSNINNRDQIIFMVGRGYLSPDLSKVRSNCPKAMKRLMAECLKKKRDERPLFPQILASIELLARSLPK

B1: SEQ ID NO: 63 (TRHVNI) with N-Cap N2 and C-Cap C4 (peptide)
peptide: PhAc-TRHVNI-C4
SMILES: CC[C@H](C)[C@H](NC(=O)[C@H](CC(N)=O)NC(=O)[C@@H](NC(=O)[C@H](Cc1c[nH]cn1)NC(=O)[C@H](CCCNC(=N)N)NC(=O)[C@@H](NC(=O)Cc1ccccc1)[C@@H](C)O)C(C)C)C(=O)NCCc1cccc(OCCC(C)C)c1
B1: the affinity in the assay with B-Raf kinase [1], expressed as Kd, was 280 nM.

KRHVAE (lactam 1-6) [SEQ ID NO: 48 (KRHVAE)]: the affinity with B-Raf kinase [2], expressed as Kd, was 300 nM.

In the case of K[NMeR][dA]PAE (also: cyclic, closure not given here) [SEQ ID NO: 64 (K-MeR-a-PAE)], the “fold increase in direct binding affinity compared to SEQ ID NO: 1” value with B-Raf kinase [3] worked out at 225 fold. Also, the affinity with B-Raf kinase [1], expressed as Kd, was 17 nM.
